Key:
Test in all cases: purified protein
purified protein [1] = substrate: C/C(C=O)=C\CC/C(C)=C/C=O; settings: 150 µM NADPH, 20 mM MOPS pH 7.0, 3% DMSO, reductive cyclisation to nepetalactol, crystal structure with NADP+ at 1.86 Å
purified protein [2] = substrate: CC(C)=CCC/C(C)=C/C=O; settings: 150 µM NADPH, 20 mM MOPS pH 7.0, 3% DMSO, geranial/neral mixture
purified protein [3] = substrate: CC(=O)[C@H]1CC[C@H]2[C@@H]3CCC4=CC(=O)CC[C@]4(C)[C@H]3CC[C@]12C; settings: 150 µM NADPH, 20 mM MOPS pH 7.0, 3% DMSO, substrate 10-200 µM (limited solubility), crystal structure with NAD+ at 2.7 Å, poor ligand density

B1: PmMOR (P. major multisubstrate oxido-reductase) (Plantago major) (protein)
chain: MSWWWAGAIGAAKKRSDEDEALPKHSSVALIVGVTGIVGNSLAEILPLADTPSGPWKVYGVARRPRPAWNEDNPINYIRCDISDPKDTQEKLSPLTDITHVFYVTWANRSTEVERCEANGKMLKNVLDVVIPNCPDLKHISLQTGRKHYVGPFELIGKIETHDPPFTEDLPRLKFDNFYYTQEDLLFEEVEKKEGLTWSVHRPGNIFGFSPYSMMNLVGTLCVYAAICKHEGKVLRFPGCKAAWDGYSDCSDADLIAEHHIWAAVDPYAKNEAFNVSNGDVFKWKHFWKVLAEQFGVECGEYEEGENLKLQDLMKGKEPVWEEIVRENGLASTNLEDVAVWWFSDAVLDIPCPLDSMNKSKEHGFLGFRNSKNSFISWIDKAKAYKIVP
Km (purified protein [1]): 368 ± 37 µM | Vmax (purified protein [1]): 0.0053 µmol/min | kcat/Km (purified protein [1]): 2600 M⁻¹ s⁻¹ | Km (purified protein [2]): 82 ± 4.5 µM | Vmax (purified protein [2]): 0.00152 µmol/min | kcat/Km (purified protein [2]): 17000 M⁻¹ s⁻¹ | Km (purified protein [3]): 28 ± 3.0 µM | Vmax (purified protein [3]): 0.00014 µmol/min | kcat/Km (purified protein [3]): 2100 M⁻¹ s⁻¹
